For 1 substance, stoichiometry N results are on record in PMC7696373.

The stoichiometry N is the number of molecules, sites or subunits per partner or assembly.

This assay deals with isoform CBd of the basic phospholipase A2 (PLA2) subunit of crotoxin (Crotalus durissus terrificus). In words: crystal structure.

As for “isoform CBd of the basic phospholipase A2 (PLA2) subunit of crotoxin (enzyme)”, the stoichiometry N was determined as 4.
